Numbering of substitutions follows the chain as printed. One block for each binder: values may come before it.
Molecular target: T1, Human PD-L2 (human, UniProt Q9BQ51)
T1 sequence: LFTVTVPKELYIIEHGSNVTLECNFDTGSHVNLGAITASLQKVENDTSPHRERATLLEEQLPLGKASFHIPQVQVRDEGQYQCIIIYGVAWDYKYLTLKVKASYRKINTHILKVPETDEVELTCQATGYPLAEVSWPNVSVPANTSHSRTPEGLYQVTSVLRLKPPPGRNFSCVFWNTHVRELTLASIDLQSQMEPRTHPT
Assay: SPR

Kd: 2.95 nM
B1: sPD-1V1 Fc (Fc fusion)
chain: LDSPDRPWNPPTFSPALLVVTEGDNATFTCSFSNTSESFVLNWYRMSPSNQTDKLAAFPEDRGQLGQDCRFRVTQLPNGRDFHMSVVRARRSDSGTYLCSAIVLAPKIQIKESLRVELRVTERRAEVPTAHPSPSPRPAGQFQTLV

Kd: 3.4 nM
B2: sPD-1V2 Fc (Fc fusion)
chain: B1 chain with S92N
